Source: the RNAGym collection of RNA variant scans (doi:10.7554/elife.80360)

B1: CPEB3 Ribozyme (parent)
chain: GGGGGCCACAGCAGAAGCGUUCACGUCGCGGCCCCUGUCAGAUUCUGGUGAAUCUGCGAAUUCUGCUGU

Variants of: B1
Test: self-cleavage, relative activity (ratio to wild type); higher = more cleavage; co-transcriptional

Variant	self-cleavage
C29U C57G	0.177
C29U C57U	0.227
C29U C57A	0.154
G30A G31C	0.254
C29U C33G	0.226
C29U C33A	0.355
G30C C57G	0.223
G30C U36G	0.188
G30C U36A	0.192
G30C C39A	0.218
G30C C39U	0.396
C29G G65A	0.286
C29G G65C	0.232
C29G G65U	0.182
C29G U61A	0.57
G30A C54U	0.876
G30A C54A	0.431
G30A C66U	0.861
G30A C66G	0.61
G30C A42C	0.441
G30C A42G	0.604
G30C G31A	0.252
G30C G31C	0.136
C29G G48C	0.698

Variant	self-cleavage
C29G G48A	0.667
C29G G48U	0.602
G30C U55G	0.323
G30C U55A	0.466
G30C U55C	0.388
C29U C66U	0.242
C29U C66A	0.235
G30C A52U	0.556
G30C A52G	0.724
G30C A52C	0.506
G30U U53A	0.297
G30C G41A	0.298
C29G U53A	0.308
C29G U53G	0.389
C29G U53C	0.193
G30U G31A	0.196
G30U G31C	0.149
G30U C33G	0.192
G30U C33A	0.233
G30U C33U	0.295
G30C C35G	0.15
G30A A42G	0.817
G30A G47C	0.93
C29U A60G	0.345

Variant	self-cleavage
C29U A60U	0.23
C29U G47C	0.62
C29U G47A	0.598
C29G U36A	0.157
C29G U36G	0.236
G30C U69G	0.96
G30C U69C	0.995
G30C U69A	0.88
C29U C35U	0.314
G30U C54G	0.248
G30U C54U	0.339
G30U C54A	0.248
C29U C63U	0.253
G30C A59G	0.708
G30C A59U	0.295
G30C A59C	0.306
C29G U44A	0.338
C29G U44C	0.314
G30U A40G	0.341
G30A U43C	0.704
G30A U43A	0.579
G30A U43G	0.464
G30A U49C	0.909
G30A U49G	0.674

Variant	self-cleavage
C29U A40G	0.288
C29U A40U	0.157
C29U A40C	0.203
G30C C66G	0.396
G30C C66U	0.666
G30C C66A	0.397
C29U G65U	0.167
C29U G65C	0.272
C29U G65A	0.19
G30U U49G	0.352
G30U U49C	0.456
G30U U49A	0.365
G30C U46G	0.69
C29G U64C	0.369
C29G U64G	0.279
G30A U46A	0.723
G30A U46C	0.866
G30A U44C	0.697
G30A U44A	0.658
C29G U49G	0.65
C29G U49A	0.521
C29U U67G	0.359
C29U U67C	0.308
C29U U67A	0.21

Variant	self-cleavage
C29G U43G	0.393
G30A A59U	0.361
G30C C63G	0.329
G30C C63U	0.645
G30C U53C	0.44
G30C U53G	0.46
G30C G68A	0.899
G30C G68U	0.938
G30C G68C	0.905
C29U A42U	0.262
C29U U46A	0.699
G30U G65C	0.214
G30U G65U	0.162
C29G U46A	0.707
C29G U46G	0.603
C29U	0.557
G30A U64C	0.795
C29U U62G	0.21
C29U U62C	0.211
C29G U38G	0.207
C29G U38C	0.302
G30U U43C	0.38
G30U U43A	0.311
G30U U43G	0.281

Variant	self-cleavage
G30U A51C	0.306
G30U A51U	0.345
G30U A51G	0.4
G30C G48C	0.642
G30C G48A	0.694
C29U G41A	0.184
C29U G41C	0.173
C29U U38C	0.189
C29U U38G	0.238
C29G G56U	0.292
C29G G56A	0.299
C29G G56C	0.225
G30C G65C	0.431
G30C C33U	0.576
G30C U61G	0.304
G30A U69A	1
G30A U69C	1.04
G30C G47U	0.71
G30C G47A	0.617
G30C G47C	0.696
G30A C39U	0.598
G30A C39G	0.596
G30A U53C	0.604
G30A U53G	0.356

Variant	self-cleavage
G30A U53A	0.541
C29U U61G	0.218
C29U U61A	0.244
C29U U69A	0.619
C29U U69G	0.737
C29U U69C	0.834
G30A C35A	0.207
C29U G48U	0.583
C29U G48A	0.601
C29G G50A	0.609
C29G G50U	0.535
G30A A40C	0.276
G30A A40G	0.754
G30A A40U	0.461
C29U G37U	0.121
C29U G37C	0.162
C29U G37A	0.157
G30C U49A	0.686
G30C U49C	0.721
G30C U49G	0.564
C29U C32G	0.165
C29U C32U	0.645
G30A A52C	0.739
